Target: Trypsin
Assay: inhibitory profile of MDCI; method as in example 1

kon: 1.13e+06 M⁻¹ s⁻¹
B1: rACTPCI (MD CI) (designed binder)
chain: MRGSHHHHHHSRHPNSPLDEENLTQENQDRGTHVDLGLASANVDFAFSLYKQLVLKAPDKNVIFSPLSISTALAFLSLGAHNTTLTEILKGLKFNLTETSEAEIHQSFQHLLRTLNQSSDELQLSMGNAMFVKEQLSLLDRFTEDAKRLYGSEAFATDFQDSAAAKKLINDYVKNGTRGKITDLIKDLDSQTMMVLVNYIFFKAKWEMPFDPQDTHQSRFYLSKKKWVMVPMMSLHHLTIPYFRDEELSCTVVELKYTGNASALFILPDQDKMEEVEAMLLPETLKRWRDSLEFREIGELYLPKFSISRDYNLNDILLQLGIEEAFTSKADLSGITGARNLAVSQVVHKAVLDVFEEGTEASAATAVKITFRSALVETRTIVRFNRPFLMIIVPTDTQNIFFMSKVTNPKQA

— patent US20060269536A1 (UNIVERSITE DE LAUSANNE, published 2006)
